These results are taken from the Immune Epitope Database (IEDB).

By Kd is commonly meant a measure of binding affinity in units of concentration.

The target in one test is HLA-A*68:02. The test can be described thus: IEDB peptide-MHC binding, purified MHC/competitive/fluorescence; filed as Kd, often an IC50 or EC50 that approximates it; ≥ and ≤ were set here for values at or beyond the usual limits of such assays.
For test [1], the target named is HLA-A*03:01. The test can be described thus: IEDB peptide-MHC binding, purified MHC/direct/fluorescence; filed as Kd, often an IC50 or EC50 that approximates it; ≥ and ≤ were set here for values at or beyond the usual limits of such assays.
Another test concerns the target HLA-A*11:01. The description is as above.
The target in a further test is HLA-A*30:01. The test is described as above.
For test [2], the target named is HLA-B*46:01. Briefly: IEDB peptide-MHC binding, purified MHC/competitive/fluorescence; filed as Kd, often an IC50 or EC50 that approximates it; ≥ and ≤ were set here for values at or beyond the usual limits of such assays.
A further test concerns the target HLA-A*01:01. The test can be described thus: IEDB peptide-MHC binding, purified MHC/direct/fluorescence; filed as Kd, often an IC50 or EC50 that approximates it; ≥ and ≤ were set here for values at or beyond the usual limits of such assays. The conditions noted are these: source organism: Escherichia coli O157:H7.
Test [3] has as its target HLA-A*02:01. The test is described as above.
Test [4] has as its target HLA-A*24:03. Described as above. As to conditions: source organism: Salmonella enterica subsp. enterica serovar Typhimurium.
Test [5] addresses HLA-A*26:01. The description is as above. The conditions noted are these: source organism: Escherichia coli O157:H7.
The target in another test is HLA-A*31:01. The description is as above. The conditions noted are these: source organism: Salmonella enterica subsp. enterica serovar Typhimurium.
Test [6] has as its target HLA-A*69:01. The description is as above. The conditions noted are these: source organism: Escherichia coli O157:H7.
For the next test, the target named is HLA-B*07:02. Described as above.
Another test addresses HLA-B*08:01. The test is described as above. The conditions noted are these: source organism: Escherichia coli O157:H7.
For test [7], the target named is HLA-B*15:01. The test is described as above.
The next test addresses HLA-B*27:05. The test is described as above. The conditions noted are these: source organism: Escherichia coli O157:H7.
Another test addresses HLA-B*40:01. The description is as above. As to conditions: source organism: Escherichia coli O157:H7.
A further test deals with HLA-B*44:02. The description is as above. As to conditions: source organism: Escherichia coli O157:H7.
A further test concerns the target HLA-B*58:01. The description is as above. As to conditions: source organism: Escherichia coli O157:H7.
The next test addresses HLA-B*15:02. Described as above. As to conditions: source organism: Escherichia coli O157:H7.
The target of test [8] is HLA-B*46:01. The test is described as above. The conditions noted are these: source organism: Escherichia coli O157:H7.
For test [9], the target named is HLA-A*02:01. Briefly: IEDB peptide-MHC binding, purified MHC/competitive/fluorescence; filed as Kd, often an IC50 or EC50 that approximates it; ≥ and ≤ were set here for values at or beyond the usual limits of such assays.
Another test deals with HLA-A*02:12. Described as above.
Another test has as its target HLA-A*02:16. The description is as above.
A further test concerns the target HLA-A*02:19. Described as above.
Test [10] concerns the target HLA-A*03:01. The test is described as above.
For test [11], the target named is HLA-A*24:03. Described as above. As to conditions: source organism: Rickettsia sibirica 246.
For test [12], the target named is HLA-A*26:01. The description is as above.
The next test deals with HLA-A*29:02. Described as above.
In test [13] the target is HLA-A*69:01. The description is as above.
In a further test the target is HLA-B*18:01. Described as above.
For another test, the target named is HLA-B*27:03. The test is described as above.
For the next test, the target named is HLA-B*39:01. The test is described as above.
A further test concerns the target HLA-B*51:01. The test is described as above.
The next test has as its target HLA-B*57:01. The test is described as above.
Another test has as its target HLA-A*02:03. The description is as above.
The next test has as its target HLA-B*35:01. Briefly: IEDB peptide-MHC binding, purified MHC/direct/fluorescence; filed as Kd, often an IC50 or EC50 that approximates it; ≥ and ≤ were set here for values at or beyond the usual limits of such assays. As to conditions: source organism: Escherichia coli O157:H7.
The target of test [14] is HLA-B*15:01. Briefly: IEDB peptide-MHC binding, purified MHC/competitive/fluorescence; filed as Kd, often an IC50 or EC50 that approximates it; ≥ and ≤ were set here for values at or beyond the usual limits of such assays. As to conditions: source organism: Francisella tularensis subsp. tularensis FSC198.
[15] abbreviates: source organism: Giardia lamblia ATCC 50803.
[16] abbreviates: source organism: Salmonella enterica subsp. enterica serovar Typhimurium.
The mark [17] stands for this setting: source organism: Escherichia coli O157:H7.
[18] abbreviates: source organism: Rickettsia sibirica 246.
[19] abbreviates: source organism: Escherichia coli B171.
[20] abbreviates: source organism: Francisella tularensis subsp. tularensis FSC198.

In the test with HLA-A*68:02 (source organism: Vibrio cholerae 2740-80), TNPAITSRV displayed a Kd of 0.0217 µM. In other words, the double-digit nanomolar range.
In the case of MLMFITSSH, the Kd with HLA-A*03:01 [1] (setting [15]) is 0.167 µM; in the test with HLA-A*11:01 (setting [15]), 0.144 µM; in the test with HLA-A*30:01 (setting [15]) it was not below 20 µM; with HLA-B*46:01 [2] (setting [15]), 0.273 µM.
On to RVNKGTGVK, for which the Kd was not below 20 µM with HLA-A*01:01; 1.34 µM with HLA-A*02:01 [3] (setting [16]); 0.359 µM with HLA-A*03:01 [1] (setting [16]); 0.0606 µM in the test with HLA-A*11:01 (setting [16]); 0.437 µM with HLA-A*24:03 [4]; not below 20 µM with HLA-A*26:01 [5]. Moreover, the Kd was 0.00181 µM with HLA-A*30:01 (setting [16]); 0.103 µM with HLA-A*31:01; not below 20 µM with HLA-A*69:01 [6]; 12.6 µM with HLA-B*07:02 (setting [16]); not below 20 µM in the test with HLA-B*08:01; 4.45 µM with HLA-B*15:01 [7] (setting [16]). Besides, the Kd with HLA-B*27:05, with HLA-B*40:01, with HLA-B*44:02 and with HLA-B*58:01 was not below 20 µM in each case.
Take RMFEKSTHH: the Kd in the test with HLA-B*15:01 [7] (setting [17]) is 0.0751 µM; in the test with HLA-B*15:02, 16 µM; with HLA-B*46:01 [8], not below 20 µM.
Turning to AMYDPQTYY, the equilibrium dissociation constant (Kd) with HLA-A*02:01 [9] (setting [18]) is not below 20 µM; in the test with HLA-A*02:12 (setting [18]), not below 20 µM; with HLA-A*02:16 (setting [18]), not below 20 µM; with HLA-A*02:19 (setting [18]) it was not below 20 µM; with HLA-A*03:01 [10] (setting [18]) it was 0.0142 µM; with HLA-A*24:03 [11] it was not below 20 µM. The Kd was not below 20 µM in the test with HLA-A*26:01 [12] (setting [18]); 0.0002 µM with HLA-A*29:02 (setting [18]); not below 20 µM with HLA-A*68:02 (setting [18]); not below 20 µM in the test with HLA-A*69:01 [13] (setting [18]); not below 20 µM with HLA-B*18:01 (setting [18]); not below 20 µM in the test with HLA-B*27:03 (setting [18]). In addition, the Kd with HLA-B*39:01 (setting [18]), in the test with HLA-B*51:01 (setting [18]) and with HLA-B*57:01 (setting [18]) was not below 20 µM throughout.
Take KAIIDTAQF: the Kd in the test with HLA-A*02:01 [9] (setting [19]), with HLA-A*02:03 (setting [19]), in the test with HLA-A*02:12 (setting [19]), in the test with HLA-A*02:16 (setting [19]), with HLA-A*02:19 (setting [19]) and with HLA-A*03:01 [10] (setting [19]) was not below 20 µM throughout. In addition, the Kd with HLA-A*26:01 [12] (setting [19]), in the test with HLA-A*29:02 (setting [19]), with HLA-A*68:02 (setting [19]), with HLA-A*69:01 [13] (setting [19]), with HLA-B*18:01 (setting [19]) and in the test with HLA-B*27:03 (setting [19]) was not below 20 µM each time. Besides, the dissociation constant Kd with HLA-B*39:01 (setting [19]) was not below 20 µM; in the test with HLA-B*51:01 (setting [19]) it was not below 20 µM; with HLA-B*57:01 (setting [19]) it was 0.209 µM.
In the case of LQLTAVFAY, the Kd is not below 20 µM in the test with HLA-A*01:01; not below 20 µM in the test with HLA-A*02:01 [3] (setting [17]); not below 20 µM in the test with HLA-A*03:01 [1] (setting [17]); 1.98 µM in the test with HLA-A*11:01 (setting [17]); not below 20 µM with HLA-A*26:01 [5]; not below 20 µM with HLA-A*69:01 [6]. The equilibrium dissociation constant (Kd) with HLA-B*07:02 (setting [17]) is not below 20 µM; with HLA-B*08:01 it was not below 20 µM; with HLA-B*15:01 [7] (setting [17]), 0.0796 µM; with HLA-B*15:02, 1.01 µM; with HLA-B*27:05 it was 0.0907 µM; in the test with HLA-B*35:01, 0.0102 µM. Also, the Kd with HLA-B*40:01, with HLA-B*44:02, with HLA-B*46:01 [8] and in the test with HLA-B*58:01 was not below 20 µM throughout.
RSFPEWDYI: the Kd in the test with HLA-A*02:03 (setting [20]), in the test with HLA-A*02:12 (setting [20]), with HLA-A*02:19 (setting [20]), with HLA-A*03:01 [10] (setting [20]), with HLA-A*26:01 [12] (setting [20]) and with HLA-A*29:02 (setting [20]) was not below 20 µM throughout. The Kd with HLA-B*15:01 [14], in the test with HLA-B*18:01 (setting [20]), with HLA-B*27:03 (setting [20]), in the test with HLA-B*39:01 (setting [20]), in the test with HLA-B*46:01 [2] (setting [20]) and with HLA-B*51:01 (setting [20]) was not below 20 µM throughout. For the same sequence, in the test with HLA-B*57:01 (setting [20]), the Kd amounted to 0.0979 µM.
